Here are results for eight molecules from patent publication US6512097.

The target in test [1] is T1, c-erbB-2 expressed on cells (SK-OV-3, SK-BR-3) (UniProt P04626 23-1255, limits assumed).
T1 construct: whole, on cells; also called native c-erbB-2 expressed on cells; c-erbB-2 on SK-OV-3 cells
Put plainly: Scatchard after radioiodination, SK-OV cells. The method, then:
(§1) All assays were performed in triplicate. Briefly, […] of radioiodinated sFv was added to 5×10^6 SK-OV cells in the presence of increasing concentrations of unlabeled sFv from the same preparation. After a 30 minute incubation at 20° C., the samples were washed with PBS at 4° C. and centrifuged at 500 g. The amount of labeled sFv bound to the cells was determined by counting the pellets in a gamma counter and the K_a, and K_d were calculated using the EBDA program (V 2.0, G. A. McPherson, 1983). The K_d of all the other isolated sFv were determined using surface plasmon resonance in a BIAcore (Pharmacia). In a BIAcore flow cell, approximately 1400 resonance units (RU) of c-erbB-2 ECD (25 μg/ml in 10 mM sodium acetate, pH 4.5) was coupled to a CM5 sensor chip (Johnsson et al. (1991), supra). Association and dissociation-rates were measured under continuous flow of […] using a concentration range from 50 to 800 nM. Rate constant $kon$ was determined from a plot of (1(dR/dt))/t vs concentration (Karlsson et al. (1991), supra). Rate constant $Hoff$ was determined from the dissociation part of the sensorgram at the highest concentration of sFv analyzed.
(§2) These clones were purified by IMAC after subcloning into PUC119SFI/NotmycHis, and the affinity determined by Scatchard analysis.

Test [2] deals with T2, c-erbB-2 ECD with a Ser-Gly-His6 C-terminal fusion (UniProt P04626 23-652).
T2 construct: extracellular domain; Expressed from CHO cells, IMAC purified; coupled to a CM5 chip, coated on plates, or biotinylated with NHS-LC-biotin; also called c-erbB-2 extracellular domain; biotinylated c-erbB-2 ECD
Kind of test: competition ELISA, sFv preincubated with soluble c-erbB-2 (0 to 100 nM). The method, then: Meth. 77: 305–319). Immunolon 4 ELISA plates (Dynatech) were coated with avidin in PBS (10 μg/ml) at 4° C. overnight. Biotinylated c-erbB-2 ECD (5 μg/ml) was added to the wells and incubated for 30 min at room temperature. Bacterial supernatant containing sFv was incubated with varying concentrations of c-erbB-2 (0 to 100 nM) at 4° C. for 1 h. The amount of free sFv was then determined by transferring 100 μl of each mixture into the wells of the previously prepared ELISA plate and incubating for 1 h at 4° C. Binding of sFv was detected as under ELISA screening and the IC50 calculated as described (Friguet et al. (1985), supra)
as §2
Background: ELISA stands for enzyme-linked immunosorbent assay.

The target in test [3] is T1, c-erbB-2 expressed on cells (SK-OV-3, …). Kind of test: Scatchard on SK-OV-3 cells. Here is the method: (§3) All assays were performed in triplicate. […] The amount of labeled sFv bound to the cells was determined by counting the pellets in a gamma counter and the K_a, and K_d were calculated using the EBDA program (V 2.0, G. A. McPherson, 1983).
The target in test [4] is T2, c-erbB-2 ECD with a Ser-Gly-His6 …. Put plainly: SPR BIAcore.
Test [5] deals with T1, c-erbB-2 expressed on cells (SK-OV-3, …). Kind of test: Scatchard on SK-OV-3 cells. The method, then:
as §3
The source holds these as a separate data set.

In test [6] the target is T2, c-erbB-2 ECD with a Ser-Gly-His6 …. Put plainly: SPR BIAcore. This is another data set of the same source. A general note: Surface plasmon resonance follows binding to a sensor surface in real time, without labels.
Test [7] has the same target. Put plainly: SPR BIAcore. This is another data set of the same source.
The target is the same in test [8]. Kind of test: SPR BIAcore. Here is the method: as §1
This is another data set of the same source.

For test [9] the target is unchanged. Put plainly: SPR BIAcore. Here is the method:
as §1
This is another data set of the same source.

Test [10] has the same target. Kind of test: SPR BIAcore, unpurified sFv.
The target is the same in test [11]. Kind of test: SPR BIAcore (Kd ND, expression too low).

Changes are numbered by the printed parent chain. Numbers in names are those of the source. Where two headings read alike, the source gives them in different places.

B1: C6VLD (scFv)
scFv: QVQLLQSGAELKKPGESLKISCKGSGYSFTSYWIAWVRQMPGKGLEYMGLIYPGDSDTKYSPSFQGQVTISVDKSVSTAYLQWSSLKPSDSAVYFCARHDVGYCSSSNCAKWPEYFQHWGQGTLVTVSSGGGGSGGGGSGGGGSQSVLTQPPSVSAAPGQKVTISCSGTNSNIGNNYVSWYQQLPGTAPKLLIYTNDQRPSGVPDRFSGSKSGTSASLAISGLQSEDEADYYCAAWDDSLNGWMFGGGTKLTVLG
modifications: Radioiodinated for the Scatchard assay; the label is not carried in the letters.
notes: Light chain shuffled; mixture of monomer and dimer by gel filtration
In the case of B1, in test [1], binding was put at a Kd of 26 nM. For the same molecule, in [2], the IC50 was 5.8 nM.

B2: C6VLE (scFv)
scFv: QVQLLQSGAELKKPGESLKISCKGSGYSFTSYWIAWVRQMPGKGLEYMGLIYPGDSDTKYSPSFQGQVTISVDKSVSTAYLQWSSLKPSDSAVYFCARHDVGYCSSSNCAKWPEYFQHWGQGTLVTVSSGGGGSGGGGSGGGGSQSVLTQPPSVSAAAGQKVTISCSGSSSSIGRNYVSWNQQLPGTAPKLLIWRNNQRPSGVPDRFSGSKSGTSASLAISGVRSEDEADYYCASWDNSLSGWVFGGGTKLTVLG
modifications: Radioiodinated for the Scatchard assay; the label is not carried in the letters.
notes: as for B1
B2 registered a Kd in test [1] of 71 nM. In test [2], the IC50 is 2.8 nM.

B3: 741F8 sFv (scFv, V domains shown)
VH: EIQLVQSGPELKKPGETVKISCKASGYTFTNYGMNWVKQAPGKGLKWMGWINTNTGEPTYAEEFKGRFAFSLETSASTAYLQINNLKNEDTATYFCGRQFITYGGFANWGQGTLVTVSA
VL: DIVMTQSPKFMSTSVGDRVSISCKASQDVSTAVAWYQQKPGQSPKLLIYWTSTRHTGVPDRFTGSGSGTDYTLTISSVQAEDLALHYCQQHYRVPYTFGGGTKLEIK
As to B3, the Kd in [3] worked out at 54 nM; in [4], 26 nM; in test [5], 54 nM; in [6], 26 nM. In addition, the koff in [4] and in [6] was 0.0064 s⁻¹ in each case. For the same molecule, the kon in test [4] and in [6] was 240000 M⁻¹ s⁻¹ throughout.

B4: C6VLF (scFv)
scFv: QVQLLQSGAELKKPGESLKISCKGSGYSFTSYWIAWVRQMPGKGLEYMGLIYPGDSDTKYSPSFQGQVTISVDKSVSTAYLQWSSLKPSDSAVYFCARHDVGYCSSSNCAKWPEYFQHWGQGTLVTVSSGGGGSGGGGSGGGGSQSVLTQPPSMSAAPGQKVTISCSGSSSNIGNNYVSWYQQFPGTAPKLLIHDNNKRPSGIPDRISGSKSGTSASLAISGLQSDDEADYYCAAWDDSLNGWVFGGGTKLTVLG
modifications: Radioiodinated for the Scatchard assay; the label is not carried in the letters.
notes: as for B1
Take B4: binding in test [1] was characterised by a dissociation constant (Kd) of 79 nM. Moreover, in [2], the IC50 stood at 7.5 nM.

B5: C6VLB (scFv)
scFv: QVQLLQSGAELKKPGESLKISCKGSGYSFTSYWIAWVRQMPGKGLEYMGLIYPGDSDTKYSPSFQGQVTISVDKSVSTAYLQWSSLKPSDSAVYFCARHDVGYCSSSNCAKWPEYFQHWGQGTLVTVSSGGGGSGGGGSGGGGSQSVLTQPPSVSAAPGQKVTISCSGSSSNIGNNYVSWYQQLPGTAPKLLIYSDNQRPSGVPDRFSGSKSGTSASLAISGLRSEDEADYYCAAWDDSLSGHWVFGGGTKLTVLG
notes: as for B1
B5 returned a Kd in test [1] of 30 nM. In test [2], this molecule returned an IC50 of 10 nM.

B6: C6L1 sFv (scFv)
scFv: QVQLLQSGAELKKPGESLKISCKGSGYSFTSYWIAWVRQMPGKGLEYMGLIYPGDSDTKYSPSFQGQVTISVDKSVSTAYLQWSSLKPSDSAVYFCARHDVGYCSSSNCAKWPEYFQHWGQGTLVTVSSGGGGSGGGGSGGGGSQSVLTQPPSVSGAPGQWVTISCSGSSSNIGNNYVSWYQQLPGTAPKLLIYDNNKRPSGVPDRFSGSQSGTSASLAISGLRSEDEADYYCAAWDDSLSGWVFGGGTKLTVLG
notes: Light chain shuffled: C6.5 VH with new VL; also called C6L1 (light chain shuffle)
Regarding B6, in test [7], binding was characterised by a dissociation constant (Kd) of 2.5 nM and the “fold higher affinity than parental” value came to 6 fold. In test [8], this molecule yielded a Kd of 2.6 nM. In test [9], binding was characterised by a dissociation constant (Kd) of 2.6 nM, the koff was determined as 0.002 s⁻¹ and the kon came to 780000 M⁻¹ s⁻¹.

B7: C6ML3-A2 (scFv)
scFv: QVQLLQSGAELKKPGESLKISCKGSGYSFTSYWIAWVRQMPGKGLEYMGLIYPGDSDTKYSPSFQGQVTISVDKSVSTAYLQWSSLKPSDSAVYFCARHDVGFCSSSNCAKWPEYFQHWGQGTLVTVSSGGGGSGGGGSGGGGSQSVLTQPPSVSAAPGQKVTISCSGSSSNIGNNYVSWYQQLPGTAPKLLIYGHTNRPAGVPDRFSGSKSGTSASLAISGFRSEDEADYYCASWDYTLSGWVFGGGTKLTVLG
notes: C6ML3-9 sFv, VH CDR3 library A clone; unpurified in the koff screen; also called mutant sFv with the conservative replacement of Y99F
Take B7: in [10], the “fold lower apparent koff than wt” value is 2.5 fold.

B8: C6MH3-D7 (scFv)
scFv: B7 scFv with F103Y, Y115W, F116Q, Q117D, H118P
notes: C6ML3-9 sFv, VH CDR3 library D mutant; expression too low for a purified Kd
In turn, B8 came in with a koff in test [11] of 0.00031 s⁻¹.

As usually defined, the Kd is the free concentration of one partner at which half of the binding sites on the other are occupied at equilibrium, for simple one-to-one binding. Low readings indicate a tighter complex, high ones a looser complex. The term IC50 denotes the point on the concentration scale where inhibition reaches its midpoint. A low value points to greater potency. By koff is commonly meant a measure of how fast the partners let go of each other. Broadly, the kon is the second-order rate constant of association. Higher therefore signals faster complex formation.
